In US20180036441A1 (Dana-Farber, published 2018):
Positions count from the first letter of the chain named.

T1: MUC1-SEA-His protein (UniProt P15941 1039-1148, limits assumed)
T1 construct: domain: SEA; Recombinant antigen used for ELISA coating and as Biacore analyte; also called MUC-SEA-His; antigen protein; not shown: His tag
T1 sequence (looked up): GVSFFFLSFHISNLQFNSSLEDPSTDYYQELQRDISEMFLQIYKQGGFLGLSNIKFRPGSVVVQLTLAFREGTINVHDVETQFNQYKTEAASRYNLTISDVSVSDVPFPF

B1: VH4 + VL1 (antibody, V domains shown)
VH: QVQLVQSGAEVKKPGATVKISCKVSGYAFSNFWMNWVQQAPGKGLEWMGQIYPGDGDTNYNGKFKGRVTITADTSTDTAYMELSSLRSEDTAVYYCARSYYRSAWFAYWGQGTLVTVSR
VL: EIVLTQSPDFQSVTPKEKVTITCRASQSIGTSIHWYQQKPDQSPKLLIKYASESISGVPSRFSGSGSGTDFTLTINSLEAEDAATYYCQQSNNWPLTFGQGTKVEIK
notes: Humanized IgG expressed in HEK293; also called humanized antibody VH4+VL1
B2: VH2 + VL4 (antibody, V domains shown)
VH: B1 VH with T17S, I20V, V24A, Q38R, K43Q, I70M, A72R, D77S, A79V, R119S
VL: AIQLTQSPSSLSASVGDRVTITCRASQSIGTSIHWYQQKPGKAPKLLIYYASESISGVPSRFSGSGSGTDFTLTISSLQPEDFATYYCQQSNNWPLTFGGGTKVEIK
notes: Humanized IgG expressed in HEK293; also called humanized antibody VH2+VL4
B3: VH1 + VL4 (antibody, V domains shown)
VH: B1 VH with A16S, T17S, I20V, V24A, Q38R, K43Q, T74K, D77S, R119S
VL: B2 VL
notes: Humanized IgG expressed in HEK293; also called humanized antibody VH1+VL4
B4: VH3 + VL4 (antibody, V domains shown)
VH: QVQLVQSGAEVKKPGASVKVSCKASGYAFSNFWMNWVRQAPGQGLEWMGQIYPGDGDTNYNGKFKGRVTMTRDTSISTAYMELSRLRSDDTAVYYCARSYYRSAWFAYWGQGTLVTVSS
VL: B2 VL
notes: Humanized IgG expressed in HEK293; also called humanized antibody VH3+VL4
B5: VH2 + VL3 (antibody, V domains shown)
VH: B4 VH with I76T, A79V, R85S, D89E
VL: EIVLTQSPATLSLSPGERATLSCRASQSIGTSIHWYQQKPGQAPRLLIYYASESISGIPARFSGSGSGTDFTLTISSLEPEDFAVYYCQQSNNWPLTFGGGTKVEIK
notes: Humanized IgG expressed in HEK293; also called humanized antibody VH2+VL3
B6: VH3 + VL3 (antibody, V domains shown)
VH: B4 VH
VL: B5 VL
notes: Humanized IgG expressed in HEK293; also called humanized antibody VH3+VL3
B7: VH5 + VL1 (antibody, V domains shown)
VH: EVQLVQSGAEVKKPGESLKISCKGSGYAFSNFWMNWVRQMPGKGLEWMGQIYPGDGDTNYNGKFKGQVTISADKSISTAYLQWSSLKASDTAMYYCARSYYRSAWFAYWGQGTLVTVSL
VL: B1 VL
notes: Humanized IgG expressed in HEK293; also called humanized antibody VH5+VL1

What follows are binders tested against T2, MUC1 on HCT116/MUC1 cells (UniProt P15941 24-1255, limits assumed) (assay: FACS titration, HCT116/MUC1 cells, antibody at 250 nM).
T2 construct: whole, on cells; also called MUC1 overexpressed cell line
T2 sequence (P15941 24-1255 limits assumed): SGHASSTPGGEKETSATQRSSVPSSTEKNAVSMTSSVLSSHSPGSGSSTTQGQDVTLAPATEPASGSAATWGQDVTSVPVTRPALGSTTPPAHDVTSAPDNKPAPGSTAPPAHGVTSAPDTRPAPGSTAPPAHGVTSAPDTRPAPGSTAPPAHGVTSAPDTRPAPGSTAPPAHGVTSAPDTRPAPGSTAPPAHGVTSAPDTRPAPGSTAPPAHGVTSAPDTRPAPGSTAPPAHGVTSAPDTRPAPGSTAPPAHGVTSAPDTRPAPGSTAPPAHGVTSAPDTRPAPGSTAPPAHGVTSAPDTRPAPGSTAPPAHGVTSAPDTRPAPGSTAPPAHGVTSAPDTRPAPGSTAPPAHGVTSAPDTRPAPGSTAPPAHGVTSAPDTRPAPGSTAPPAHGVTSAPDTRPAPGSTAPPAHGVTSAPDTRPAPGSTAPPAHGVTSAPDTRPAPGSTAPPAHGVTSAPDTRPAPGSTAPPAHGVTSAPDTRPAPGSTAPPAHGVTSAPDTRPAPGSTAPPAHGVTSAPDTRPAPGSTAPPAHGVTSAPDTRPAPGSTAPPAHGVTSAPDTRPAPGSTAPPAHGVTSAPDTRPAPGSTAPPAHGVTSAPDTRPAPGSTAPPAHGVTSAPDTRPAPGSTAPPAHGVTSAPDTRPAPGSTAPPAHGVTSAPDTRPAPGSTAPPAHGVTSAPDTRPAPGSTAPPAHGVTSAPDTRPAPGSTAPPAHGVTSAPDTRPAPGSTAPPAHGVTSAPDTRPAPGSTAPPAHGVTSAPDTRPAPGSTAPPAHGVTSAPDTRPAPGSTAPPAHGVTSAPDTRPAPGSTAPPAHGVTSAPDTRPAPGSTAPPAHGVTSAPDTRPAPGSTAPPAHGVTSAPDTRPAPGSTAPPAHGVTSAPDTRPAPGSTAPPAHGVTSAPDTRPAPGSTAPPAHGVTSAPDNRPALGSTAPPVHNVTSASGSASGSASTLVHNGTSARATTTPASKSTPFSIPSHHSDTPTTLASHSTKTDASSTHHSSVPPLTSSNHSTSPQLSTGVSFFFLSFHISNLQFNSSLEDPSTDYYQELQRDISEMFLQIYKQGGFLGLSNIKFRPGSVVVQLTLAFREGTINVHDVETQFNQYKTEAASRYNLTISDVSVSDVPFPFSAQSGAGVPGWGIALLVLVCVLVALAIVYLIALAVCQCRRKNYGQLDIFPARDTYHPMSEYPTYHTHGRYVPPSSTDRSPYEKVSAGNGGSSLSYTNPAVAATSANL
Description: (§1) To assess cell binding, 2×10⁵ HCT116/MUC1 cells per well were washed with PBS twice and incubated in 200 μl of serial dilutions of chimeric or humanized antibodies for 1 hour at room temperature. After washing 3 times with PBS, secondary antibody (2 μg/ml Alexa Flour®488 goat anti-human IgG) was added to cells and incubated for 30 minutes at room temperature. After washing with PBS, cells were analyzed by using FACSCalibur (BD Bioscience, San Jose, Calif.) and Flowjo software.
For B1, the geometric mean was 250.
B2 gave a geometric mean of 216.
Work on B3 yielded a geometric mean of 142.
B4 was tested, and the geometric mean was 227.
Work on B5 yielded a geometric mean of 167.
For B6, the geometric mean was 154.
With B7 the geometric mean was 327.

What follows are binders tested against T2, MUC1 on HCT116/MUC1 cells (assay: FACS titration, HCT116/MUC1 cells, antibody at 500 nM).
Description: as §1
B1 gave a geometric mean of 253.
With B2 the geometric mean was 212.
With B3 the geometric mean was 141.
B4 was tested, and the geometric mean was 235.
B5 was tested, and the geometric mean was 178.
B6 was tested, and the geometric mean was 148.
B7 was tested, and the geometric mean was 316.

These binders were tested against T2, MUC1 on HCT116/MUC1 cells (assay: FACS titration, HCT116/MUC1 cells, antibody at 125 nM).
Description: as §1
For B1, the geometric mean was 225.
With B2 the geometric mean was 188.
For B3, the geometric mean was 132.
For B4, the geometric mean was 208.
With B5 the geometric mean was 147.
Work on B6 yielded a geometric mean of 151.
With B7 the geometric mean was 326.

The binders below were run against T2, MUC1 on HCT116/MUC1 cells (assay: FACS titration, HCT116/MUC1 cells, antibody at 62.5 nM).
Description: as §1
For B1, the geometric mean was 188.
B2 gave a geometric mean of 161.
B3 gave a geometric mean of 111.
B4 showed a geometric mean of 171.
B5 was tested, and the geometric mean was 124.
B6 showed a geometric mean of 134.
Work on B7 yielded a geometric mean of 291.

These binders were tested against T1, MUC1-SEA-His protein (assay: SPR Biacore T200, antibody captured, antigen as analyte).
Description: Antibody affinity was determined using a Surface Plasmon Resonance (SPR) biosensor, Biacore T200 (GE Healthcare). Antibody was immobilized on the sensor chip through Fc capture method. Antigen protein was used as the analyte. The data of dissociation (kd) and association (ka) rate constants were obtained using Biacore T200 evaluation software. The apparent equilibrium dissociation constants (KD) were calculated from the ratio of kd over ka. For affinity ranking, twenty-five humanized antibodies plus chimericantibody were injected and captured on sensor chip individually. The antibodies were ranked based on their dissociation rates (kd).
Binder B1 has a koff of 0.00261 s⁻¹.
B2 was tested, and the koff was 0.00741 s⁻¹.
In the case of B3, the koff is reported as 0.0124 s⁻¹.
With B4 the koff was 0.00902 s⁻¹.
In the case of B5, the koff is reported as 0.0124 s⁻¹.
Work on B6 yielded a koff of 0.0152 s⁻¹.
With B7 the koff was 0.00192 s⁻¹.

These binders were tested against T2, MUC1 on HCT116/MUC1 cells (assay: FACS titration, HCT116/MUC1 cells, antibody at 0.488 nM).
Description: as §1
For B1, the geometric mean was 2.54.
In the case of B2, the geometric mean is reported as 3.16.
In the case of B3, the geometric mean is reported as 2.85.
Binder B4 has a geometric mean of 19.5.
In the case of B5, the geometric mean is reported as 2.74.
B6 showed a geometric mean of 2.65.
Binder B7 has a geometric mean of 2.93.

What follows are binders tested against T2, MUC1 on HCT116/MUC1 cells (assay: FACS titration, HCT116/MUC1 cells, antibody at 15.625 nM).
Description: as §1
B1 was tested, and the geometric mean was 27.
Binder B2 has a geometric mean of 28.4.
B3 showed a geometric mean of 27.7.
B4 gave a geometric mean of 54.6.
For B5, the geometric mean was 26.2.
B6 showed a geometric mean of 27.3.
B7 was tested, and the geometric mean was 91.2.

These binders were tested against T2, MUC1 on HCT116/MUC1 cells (assay: FACS titration, HCT116/MUC1 cells, antibody at 0.977 nM).
Description: as §1
In the case of B1, the geometric mean is reported as 2.51.
Binder B2 has a geometric mean of 3.76.
With B3 the geometric mean was 2.86.
Work on B4 yielded a geometric mean of 25.6.
For B5, the geometric mean was 2.83.
B6 was tested, and the geometric mean was 2.95.
Work on B7 yielded a geometric mean of 4.25.

What follows are binders tested against T2, MUC1 on HCT116/MUC1 cells (assay: FACS titration, HCT116/MUC1 cells, antibody at 7.812 nM).
Description: as §1
In the case of B1, the geometric mean is reported as 8.87.
B2 gave a geometric mean of 19.
Binder B3 has a geometric mean of 6.83.
For B4, the geometric mean was 22.2.
B5 showed a geometric mean of 11.8.
B6 gave a geometric mean of 7.91.
B7 was tested, and the geometric mean was 29.7.

The binders below were run against T2, MUC1 on HCT116/MUC1 cells (assay: FACS titration, HCT116/MUC1 cells, antibody at 0.244 nM).
Description: as §1
B1 was tested, and the geometric mean was 2.54.
B2 was tested, and the geometric mean was 2.88.
Work on B3 yielded a geometric mean of 2.82.
B4 was tested, and the geometric mean was 9.23.
For B5, the geometric mean was 2.73.
For B6, the geometric mean was 2.61.
For B7, the geometric mean was 2.67.

Each binder was assayed against T2, MUC1 on HCT116/MUC1 cells (assay: FACS titration, HCT116/MUC1 cells, antibody at 1.953 nM).
Description: as §1
With B1 the geometric mean was 2.94.
With B2 the geometric mean was 5.22.
B3 was tested, and the geometric mean was 3.16.
B4 was tested, and the geometric mean was 19.
B5 showed a geometric mean of 3.25.
In the case of B6, the geometric mean is reported as 3.64.
Work on B7 yielded a geometric mean of 7.02.

What follows are binders tested against T2, MUC1 on HCT116/MUC1 cells (assay: FACS titration on HCT116/MUC1 cells).
Description: as §1
With B1 the EC50 was 36.6 nM.
B2 gave an EC50 of 41.3 nM.
B3 gave an EC50 of 31.9 nM.
With B4 the EC50 was 33.1 nM.
With B5 the EC50 was 45.4 nM.
Binder B6 has an EC50 of 30.9 nM.
Work on B7 yielded an EC50 of 23.6 nM.

Each binder was assayed against T2, MUC1 on HCT116/MUC1 cells (assay: FACS titration, HCT116/MUC1 cells, antibody at 31.25 nM).
Description: as §1
Work on B1 yielded a geometric mean of 113.
For B2, the geometric mean was 74.6.
B3 was tested, and the geometric mean was 73.3.
In the case of B4, the geometric mean is reported as 130.
In the case of B5, the geometric mean is reported as 60.4.
B6 showed a geometric mean of 77.2.
In the case of B7, the geometric mean is reported as 219.

Each binder was assayed against T2, MUC1 on HCT116/MUC1 cells (assay: FACS titration, HCT116/MUC1 cells, antibody at 3.906 nM).
Description: as §1
B1 was tested, and the geometric mean was 4.22.
Work on B2 yielded a geometric mean of 9.37.
B3 was tested, and the geometric mean was 4.1.
B4 gave a geometric mean of 12.
In the case of B5, the geometric mean is reported as 4.03.
For B6, the geometric mean was 5.77.
B7 gave a geometric mean of 20.
